The nature of the data set: protein stability index of a GFP-peptide fusion (GPS, HEK-293T) (PSI 1-6); higher = more stable. As to conditions: c terminus: a fixed tail appended.

± gives the standard deviation.
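Further: 24-mer peptide tiles fused after GFP, lentivirally expressed, FACS-sorted into six equal bins by GFP/DsRed ratio, decoded by Illumina sequencing, PSI is the read-weighted mean bin number.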

Consider ETNLLLAQKQRLERALDATEVPFS [TEKT4], for which the protein stability index stood at 4.1 ± 0.29 (treatment: DMSO) and 4.21 ± 0.25 (treatment: MLN4924 1 uM, 8 h).

On to PDVTQQLLQKYNMQFLIRSHECKP [PPEF2], for which the protein stability index turned out to be 2.8 ± 0.21 (treatment: DMSO) and 2.71 ± 0.25 (treatment: MLN4924 1 uM, 8 h).

Turning to TSFEPEALGNLVEGMDFHRFYFEN [CAMK2B], the protein stability index by setting is: (treatment: DMSO) 3.14 ± 0.27; (treatment: MLN4924 1 uM, 8 h) 3.18 ± 0.26.

Regarding TVRGATGIFPLSFVKILKDFPEED [NCF4], the protein stability index is, setting by setting: (treatment: DMSO) 3.43 ± 0.51; (treatment: MLN4924 1 uM, 8 h) 3.57 ± 0.4.

Turning to ETYIHLLAMKIKVGSDDLERIEAR [PSD2], the protein stability index worked out at 2.26 ± 0.13 (treatment: DMSO) and 2.5 ± 0.44 (treatment: MLN4924 1 uM, 8 h).

On to MKSEEQKIKDARKGPLVPFPNQKS [KMT5A], for which the protein stability index came to 5.01 ± 0.18 (treatment: DMSO) and 5.23 ± 0.19 (treatment: MLN4924 1 uM, 8 h).

For the sequence LGHREPSAHPVEVFSFDLHEPLSK [TMEM175], the protein stability index came out at 3.92 ± 0.16 (treatment: DMSO) and 4.17 ± 0.28 (treatment: MLN4924 1 uM, 8 h).

Take TLIDGGEHYWEVRYEPDSKAFGVG [FSD1]: the protein stability index runs as follows: (treatment: DMSO) 2.65 ± 0.27; (treatment: MLN4924 1 uM, 8 h) 2.86 ± 0.39.

As to LGNGLLRKKTLVPGPPGSSRPVKG [FKBP8], the protein stability index runs as follows: (treatment: DMSO) 3.94 ± 0.12; (treatment: MLN4924 1 uM, 8 h) 4.05 ± 0.47.

For the sequence ERDRDPCGGSGGGGGGGGGGGGCS [LURAP1L], the protein stability index runs as follows: (treatment: DMSO) 5.37 ± 0.35; (treatment: MLN4924 1 uM, 8 h) 5.4 ± 0.24.

On to QVAKREREAATKHSKASLPTGEGS [CHCHD6], for which the protein stability index (treatment: DMSO) is 5.32 ± 0.47 and the protein stability index (treatment: MLN4924 1 uM, 8 h) worked out at 5.26 ± 0.33.

In the case of YFVSESFEDAKEKMREFTKTIKRP [TPH1], the protein stability index is 3.15 ± 0.19 (treatment: DMSO) and 3.41 ± 0.14 (treatment: MLN4924 1 uM, 8 h).

In turn, VGELNGYLRDSSPAPCADGPAGGL [PWWP2B] yielded a protein stability index (treatment: DMSO) of 4.29 ± 0.23 and a protein stability index (treatment: MLN4924 1 uM, 8 h) of 4.16 ± 0.068.

With HGHNIGKKMSCQQFIANLDQLNDG [PSD2], the protein stability index runs as follows: (treatment: DMSO) 3.26 ± 0.24; (treatment: MLN4924 1 uM, 8 h) 3.29 ± 0.16.

For the sequence ENDPEWWKCKNARGQVGLVPKNYV [NCK2], the protein stability index is 3.52 ± 0.16 (treatment: DMSO) and 3.54 ± 0.12 (treatment: MLN4924 1 uM, 8 h).

On to VYSDHTNTNNLTFLMDLPSAGRSM [RNF180], for which the protein stability index was found to be 2.29 ± 0.45 (treatment: DMSO) and 2.79 ± 0.42 (treatment: MLN4924 1 uM, 8 h).

With SNHVDDFTTFRGTELSFLVTTHQP [EDNRA], the protein stability index is, setting by setting: (treatment: DMSO) 2.61 ± 0.4; (treatment: MLN4924 1 uM, 8 h) 2.8 ± 0.4.

As for KRKLDTILNLERDVEDLQRDKARL [NFE2L1], the protein stability index by setting is: (treatment: DMSO) 4.36 ± 0.25; (treatment: MLN4924 1 uM, 8 h) 4.46 ± 0.17.

In the case of ALLSCCLTVVSFYQVAALQGDLAS [TNFSF13B], the protein stability index is 3.57 ± 0.21 (treatment: DMSO) and 3.2 ± 0.26 (treatment: MLN4924 1 uM, 8 h).

As to EVKSSIAGSSTWERYFIPVSCFLT [SLC29A1], the protein stability index is 2.44 ± 0.37 (treatment: DMSO) and 2.34 ± 0.36 (treatment: MLN4924 1 uM, 8 h).

Turning to RGAQGVILVYDIANRWSFDGIDRW [RAB40B], the protein stability index reads like this: (treatment: DMSO) 2.29 ± 0.65; (treatment: MLN4924 1 uM, 8 h) 2.19 ± 0.15.

As to LGVQTGGPGGRRAGEPGHSPADYL [DYRK1B], the protein stability index is, setting by setting: (treatment: DMSO) 4.34 ± 0.38; (treatment: MLN4924 1 uM, 8 h) 4.3 ± 0.31.

Consider REAVPALLGEPLAGPELDEMLREV [CABP4], for which the protein stability index reads like this: (treatment: DMSO) 5.13 ± 0.22; (treatment: MLN4924 1 uM, 8 h) 5.12 ± 0.31.

As to TQSVSECITEDGRTVAVGDIVWGK [PWWP2B], the protein stability index runs as follows: (treatment: DMSO) 4.09 ± 0.22; (treatment: MLN4924 1 uM, 8 h) 4.25 ± 0.21.

Regarding IGWFPSNYVLEEVDEAAAESPSFL [NCK2], the protein stability index is, setting by setting: (treatment: DMSO) 3.93 ± 0.24; (treatment: MLN4924 1 uM, 8 h) 4.13 ± 0.23.

With LDASGEKMNGSHRDQGSSALSGVG [IKZF1], the protein stability index is, setting by setting: (treatment: DMSO) 4.97 ± 0.51; (treatment: MLN4924 1 uM, 8 h) 5.05 ± 0.3.

For the sequence SPQSGSILTEETEVKGTLEGDVCG [PBXIP1], the protein stability index worked out at 5.59 ± 0.11 (treatment: DMSO) and 5.33 ± 0.35 (treatment: MLN4924 1 uM, 8 h).

Turning to FNLFCQKRFDESMQVFAKLGTDPT [VPS39], the protein stability index is, setting by setting: (treatment: DMSO) 2.68 ± 0.36; (treatment: MLN4924 1 uM, 8 h) 2.68 ± 0.11.

Take TSSQKALMLELKSLQEEPVEGFRI [UBE2R2]: the protein stability index (treatment: DMSO) amounted to 3.11 ± 0.31 and the protein stability index (treatment: MLN4924 1 uM, 8 h) came to 3.3 ± 0.24.

As for VHGDPAVWWVSQFVKYLIRPQPWL [FUT8], the protein stability index reads like this: (treatment: DMSO) 2.95 ± 0.34; (treatment: MLN4924 1 uM, 8 h) 3.21 ± 0.6.

With PGQHLSDYSQLNESTTKESSEASQ [FBXO34], the protein stability index came to 5.47 ± 0.28 (treatment: DMSO) and 5.6 ± 0.24 (treatment: MLN4924 1 uM, 8 h).

For the sequence LLSKYCGYREDNIPQLEDVSNFLK [TPH1], the protein stability index (treatment: DMSO) was determined as 2.41 ± 0.59 and the protein stability index (treatment: MLN4924 1 uM, 8 h) is 2.61 ± 0.57.

Sequence REYLSEEVQAVHKNTTYDLIANIV [USP39] showed a protein stability index (treatment: DMSO) of 2.23 ± 0.23 and a protein stability index (treatment: MLN4924 1 uM, 8 h) of 2.32 ± 0.11.

SGKELKIDIIPNPQERTLTLVDTG [HSP90AB1]: the protein stability index (treatment: DMSO) came to 3.98 ± 0.42 and the protein stability index (treatment: MLN4924 1 uM, 8 h) is 3.58 ± 0.48.

FKMLDPDGKGKINKEYIKRLLMSQ [MYL5]: the protein stability index by setting is: (treatment: DMSO) 2.41 ± 0.28; (treatment: MLN4924 1 uM, 8 h) 2.63 ± 0.3.

In the case of NYCSAYESFYESTSPECASPQFEG [NEUROD6], the protein stability index is, setting by setting: (treatment: DMSO) 3.54 ± 0.22; (treatment: MLN4924 1 uM, 8 h) 3.67 ± 0.16.

(Values after the supplement of paper PMC10567573.)
